Measurements published in PMC8993412.

B1: IgG 16684 (anti-Nsp15) (antibody, V domains shown)
VH: EVQLVESGGGLVQPGGSLRLSCAASGFNFSSSSIHWVRQAPGKGLEWVASIYSSYGYTYYADSVKGRFTISADTSKNTAYLQMNSLRAEDTAVYYCARVSYYYPYSWYFYGYYGGLDYWGQGTLVTVSS
VL: DIQMTQSPSSLSASVGDRVTITCRASQSVSSAVAWYQQKPGKAPKLLIYSASSLYSGVPSRFSGSRSGTDFTLTISSLQPEDFATYYCQQSSYSLITFGQGTKVEIK
B2: IgG 16658 (anti-Nsp7) (antibody, V domains shown)
VH: EVQLVESGGGLVQPGGSLRLSCAASGFNLSYYSIHWVRQAPGKGLEWVASIYPYYSYTYYADSVKGRFTISADTSKNTAYLQMNSLRAEDTAVYYCARVGFDYWGQGTLVTVSS
VL: DIQMTQSPSSLSASVGDRVTITCRASQSVSSAVAWYQQKPGKAPKLLIYSASSLYSGVPSRFSGSRSGTDFTLTISSLQPEDFATYYCQQYAGLITFGQGTKVEIK

Key:
[1] = target: SARS-CoV-2 Nsp15 (recombinant) (SARS-CoV-2) (UniProt P0DTD1); test: ELISA
[2] = target: SARS-CoV-2 Nsp7 (recombinant) (SARS-CoV-2) (UniProt P0DTD1); test: ELISA

| Binder | EC50 [1] [µM] | EC50 [2] [µM] |
| --- | --- | --- |
| B1 | 0.019 | – |
| B2 | – | 0.13 |
